Laboratory results from patent US20220298218A1 (ANTAG THERAPEUTICS, published 2022).
*1 amine or outer side, *2 acyl side, *3 side chain or, on linkers, in order; H or OH if unused. Where no end group is shown, it is not given here. Side-chain parts run from the residue outwards. The star is where a group is joined. C18 diacid = O=C(O)CCCCCCCCCCCCCCCCC(=O)*; C16 diacid = O=C(O)CCCCCCCCCCCCCCC(=O)*; γGlu = O=C(O)[C@H](CCC(=O)[*:2])N[*:1]; AEEA = NCCOCCOCC(=O)O

T1: human GIP receptor (human, UniProt P48546 22-466)
T1 sequence (looked up): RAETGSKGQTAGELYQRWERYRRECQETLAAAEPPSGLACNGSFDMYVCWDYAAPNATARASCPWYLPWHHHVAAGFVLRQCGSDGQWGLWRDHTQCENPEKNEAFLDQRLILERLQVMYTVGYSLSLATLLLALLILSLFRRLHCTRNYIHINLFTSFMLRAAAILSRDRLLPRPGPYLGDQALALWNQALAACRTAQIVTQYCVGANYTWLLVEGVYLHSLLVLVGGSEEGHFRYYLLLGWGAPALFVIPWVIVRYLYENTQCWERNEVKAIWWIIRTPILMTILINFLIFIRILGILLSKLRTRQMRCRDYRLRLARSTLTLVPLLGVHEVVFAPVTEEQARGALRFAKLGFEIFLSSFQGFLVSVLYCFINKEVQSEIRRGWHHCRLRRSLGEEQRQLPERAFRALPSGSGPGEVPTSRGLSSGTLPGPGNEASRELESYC

B1: AT629 (peptide)
peptide: EGTFISDYSIAMDKIK([AEEA-AEEA-γGlu-C16 diacid])QQDFVNWLLAQKPSSGAPPPS-OH
modifications: N-terminus assumed
SMILES: CC[C@H](C)[C@H](NC(=O)[C@H](CO)NC(=O)[C@H](Cc1ccc(O)cc1)NC(=O)[C@H](CC(=O)O)NC(=O)[C@H](CO)NC(=O)[C@@H](NC(=O)[C@H](Cc1ccccc1)NC(=O)[C@@H](NC(=O)CNC(=O)[C@@H](N)CCC(=O)O)[C@@H](C)O)[C@@H](C)CC)C(=O)N[C@@H](C)C(=O)N[C@@H](CCSC)C(=O)N[C@@H](CC(=O)O)C(=O)N[C@@H](CCCCN)C(=O)N[C@H](C(=O)N[C@@H](CCCCNC(=O)COCCOCCNC(=O)COCCOCCNC(=O)CC[C@H](NC(=O)CCCCCCCCCCCCCCC(=O)O)C(=O)O)C(=O)N[C@@H](CCC(N)=O)C(=O)N[C@@H](CCC(N)=O)C(=O)N[C@@H](CC(=O)O)C(=O)N[C@@H](Cc1ccccc1)C(=O)N[C@H](C(=O)N[C@@H](CC(N)=O)C(=O)N[C@@H](Cc1c[nH]c2ccccc12)C(=O)N[C@@H](CC(C)C)C(=O)N[C@@H](CC(C)C)C(=O)N[C@@H](C)C(=O)N[C@@H](CCC(N)=O)C(=O)N[C@@H](CCCCN)C(=O)N1CCC[C@H]1C(=O)N[C@@H](CO)C(=O)N[C@@H](CO)C(=O)NCC(=O)N[C@@H](C)C(=O)N1CCC[C@H]1C(=O)N1CCC[C@H]1C(=O)N1CCC[C@H]1C(=O)N[C@@H](CO)C(=O)O)C(C)C)[C@@H](C)CC
B2: AT626 (peptide)
peptide: EGTFISDYSIAMDKIK(C16 diacid)QQDFVNWLLEGGPSSGAPPPS-OH
modifications: N-terminus assumed
SMILES: CC[C@H](C)[C@H](NC(=O)[C@H](CO)NC(=O)[C@H](Cc1ccc(O)cc1)NC(=O)[C@H](CC(=O)O)NC(=O)[C@H](CO)NC(=O)[C@@H](NC(=O)[C@H](Cc1ccccc1)NC(=O)[C@@H](NC(=O)CNC(=O)[C@@H](N)CCC(=O)O)[C@@H](C)O)[C@@H](C)CC)C(=O)N[C@@H](C)C(=O)N[C@@H](CCSC)C(=O)N[C@@H](CC(=O)O)C(=O)N[C@@H](CCCCN)C(=O)N[C@H](C(=O)N[C@@H](CCCCNC(=O)CCCCCCCCCCCCCCC(=O)O)C(=O)N[C@@H](CCC(N)=O)C(=O)N[C@@H](CCC(N)=O)C(=O)N[C@@H](CC(=O)O)C(=O)N[C@@H](Cc1ccccc1)C(=O)N[C@H](C(=O)N[C@@H](CC(N)=O)C(=O)N[C@@H](Cc1c[nH]c2ccccc12)C(=O)N[C@@H](CC(C)C)C(=O)N[C@@H](CC(C)C)C(=O)N[C@@H](CCC(=O)O)C(=O)NCC(=O)NCC(=O)N1CCC[C@H]1C(=O)N[C@@H](CO)C(=O)N[C@@H](CO)C(=O)NCC(=O)N[C@@H](C)C(=O)N1CCC[C@H]1C(=O)N1CCC[C@H]1C(=O)N1CCC[C@H]1C(=O)N[C@@H](CO)C(=O)O)C(C)C)[C@@H](C)CC
B3: AT632 (peptide)
peptide: TFISDYKIAMDKIHQQDFVNWLLAQKPSSGAPPPS
HELM: PEPTIDE1{T.F.I.S.D.Y.K.I.A.M.D.K.I.H.Q.Q.D.F.V.N.W.L.L.A.Q.K.P.S.S.G.A.P.P.P.S}|PEPTIDE2{[O=C(O)CCCCCCCCCCCCCCC(=O)[*:2]].[gGlu]}$PEPTIDE1,PEPTIDE2,7:R3-2:R2$$$V2.0; N-terminus assumed
SMILES: CC[C@H](C)[C@H](NC(=O)[C@H](CCCCNC(=O)CC[C@H](NC(=O)CCCCCCCCCCCCCCC(=O)O)C(=O)O)NC(=O)[C@H](Cc1ccc(O)cc1)NC(=O)[C@H](CC(=O)O)NC(=O)[C@H](CO)NC(=O)[C@@H](NC(=O)[C@H](Cc1ccccc1)NC(=O)[C@@H](N)[C@@H](C)O)[C@@H](C)CC)C(=O)N[C@@H](C)C(=O)N[C@@H](CCSC)C(=O)N[C@@H](CC(=O)O)C(=O)N[C@@H](CCCCN)C(=O)N[C@H](C(=O)N[C@@H](Cc1c[nH]cn1)C(=O)N[C@@H](CCC(N)=O)C(=O)N[C@@H](CCC(N)=O)C(=O)N[C@@H](CC(=O)O)C(=O)N[C@@H](Cc1ccccc1)C(=O)N[C@H](C(=O)N[C@@H](CC(N)=O)C(=O)N[C@@H](Cc1c[nH]c2ccccc12)C(=O)N[C@@H](CC(C)C)C(=O)N[C@@H](CC(C)C)C(=O)N[C@@H](C)C(=O)N[C@@H](CCC(N)=O)C(=O)N[C@@H](CCCCN)C(=O)N1CCC[C@H]1C(=O)N[C@@H](CO)C(=O)N[C@@H](CO)C(=O)NCC(=O)N[C@@H](C)C(=O)N1CCC[C@H]1C(=O)N1CCC[C@H]1C(=O)N1CCC[C@H]1C(=O)N[C@@H](CO)C(=O)O)C(C)C)[C@@H](C)CC
B4: AT627 (peptide)
peptide: EGTFISDYSIAMDKIK(C18 diacid)QQDFVNWLLAQKPSSGAPPPS-OH
modifications: N-terminus assumed
SMILES: CC[C@H](C)[C@H](NC(=O)[C@H](CO)NC(=O)[C@H](Cc1ccc(O)cc1)NC(=O)[C@H](CC(=O)O)NC(=O)[C@H](CO)NC(=O)[C@@H](NC(=O)[C@H](Cc1ccccc1)NC(=O)[C@@H](NC(=O)CNC(=O)[C@@H](N)CCC(=O)O)[C@@H](C)O)[C@@H](C)CC)C(=O)N[C@@H](C)C(=O)N[C@@H](CCSC)C(=O)N[C@@H](CC(=O)O)C(=O)N[C@@H](CCCCN)C(=O)N[C@H](C(=O)N[C@@H](CCCCNC(=O)CCCCCCCCCCCCCCCCC(=O)O)C(=O)N[C@@H](CCC(N)=O)C(=O)N[C@@H](CCC(N)=O)C(=O)N[C@@H](CC(=O)O)C(=O)N[C@@H](Cc1ccccc1)C(=O)N[C@H](C(=O)N[C@@H](CC(N)=O)C(=O)N[C@@H](Cc1c[nH]c2ccccc12)C(=O)N[C@@H](CC(C)C)C(=O)N[C@@H](CC(C)C)C(=O)N[C@@H](C)C(=O)N[C@@H](CCC(N)=O)C(=O)N[C@@H](CCCCN)C(=O)N1CCC[C@H]1C(=O)N[C@@H](CO)C(=O)N[C@@H](CO)C(=O)NCC(=O)N[C@@H](C)C(=O)N1CCC[C@H]1C(=O)N1CCC[C@H]1C(=O)N1CCC[C@H]1C(=O)N[C@@H](CO)C(=O)O)C(C)C)[C@@H](C)CC
B5: AT630 (peptide)
peptide: EGTFISDYSIAMDKIKQQDFVNWLLAQKPSSGAPPPS
HELM: PEPTIDE1{E.G.T.F.I.S.D.Y.S.I.A.M.D.K.I.K.Q.Q.D.F.V.N.W.L.L.A.Q.K.P.S.S.G.A.P.P.P.S}|PEPTIDE2{[O=C(O)CCCCCCCCCCCCCCC(=O)[*:2]].[gGlu]}$PEPTIDE1,PEPTIDE2,16:R3-2:R2$$$V2.0; N-terminus assumed
SMILES: CC[C@H](C)[C@H](NC(=O)[C@H](CO)NC(=O)[C@H](Cc1ccc(O)cc1)NC(=O)[C@H](CC(=O)O)NC(=O)[C@H](CO)NC(=O)[C@@H](NC(=O)[C@H](Cc1ccccc1)NC(=O)[C@@H](NC(=O)CNC(=O)[C@@H](N)CCC(=O)O)[C@@H](C)O)[C@@H](C)CC)C(=O)N[C@@H](C)C(=O)N[C@@H](CCSC)C(=O)N[C@@H](CC(=O)O)C(=O)N[C@@H](CCCCN)C(=O)N[C@H](C(=O)N[C@@H](CCCCNC(=O)CC[C@H](NC(=O)CCCCCCCCCCCCCCC(=O)O)C(=O)O)C(=O)N[C@@H](CCC(N)=O)C(=O)N[C@@H](CCC(N)=O)C(=O)N[C@@H](CC(=O)O)C(=O)N[C@@H](Cc1ccccc1)C(=O)N[C@H](C(=O)N[C@@H](CC(N)=O)C(=O)N[C@@H](Cc1c[nH]c2ccccc12)C(=O)N[C@@H](CC(C)C)C(=O)N[C@@H](CC(C)C)C(=O)N[C@@H](C)C(=O)N[C@@H](CCC(N)=O)C(=O)N[C@@H](CCCCN)C(=O)N1CCC[C@H]1C(=O)N[C@@H](CO)C(=O)N[C@@H](CO)C(=O)NCC(=O)N[C@@H](C)C(=O)N1CCC[C@H]1C(=O)N1CCC[C@H]1C(=O)N1CCC[C@H]1C(=O)N[C@@H](CO)C(=O)O)C(C)C)[C@@H](C)CC

What follows are binders tested against T1, human GIP receptor (assay: cell-based or functional assay).
B1 was tested, and the “cAMP agonism % Emax” value was 0%, the “cAMP antagonism” value was 17.1 nM and the “cAMP antagonism % inhib” value was 93%. The “cAMP antagonism pIC50” value was 7.8. In the case of EGTFISDYSIAMDKIK(C18)QQDFVNWLLAQKPSSGAPPPS-OH [AT628], the “cAMP agonism % Emax” value is reported as 0%, the “cAMP antagonism” value is reported as 58.4 nM and the “cAMP antagonism % inhib” value is reported as 94%. For the same binder, the “cAMP antagonism pIC50” value was 7.2. B2 was tested, and the “cAMP agonism % Emax” value was 0%, the “cAMP antagonism” value was 4.47 nM and the “cAMP antagonism % inhib” value was 100%. The “cAMP antagonism pIC50” value was 8.4. For B3, the “cAMP agonism % Emax” value was 0%, the “cAMP antagonism” value was 8.41 nM and the “cAMP antagonism % inhib” value was 100%. The “cAMP antagonism pIC50” value was 8.1. For B4, the “cAMP agonism % Emax” value was 0%, the “cAMP antagonism” value was 15.9 nM and the “cAMP antagonism % inhib” value was 97%. For the same binder, the “cAMP antagonism pIC50” value was 7.8. In the case of B5, the “cAMP agonism % Emax” value is reported as 0%, the “cAMP antagonism” value is reported as 11.2 nM and the “cAMP antagonism % inhib” value is reported as 85%. For the same binder, the “cAMP antagonism pIC50” value was 8.
